Experimental data from paper PMC8713289.

Tests used:
[1] = target: Interferon alpha-2a (human) (UniProt P01563); assay: AUC; sedimentation velocity, 50000 rpm, histidine pH 7.5, 0 or 140 mM NaCl, 0.8, 0.4 and 0.2 mg/mL (A280 = 1, 0.5, 0.25); dimers and larger oligomers in concentration-dependent equilibrium
[2] = target: Interferon alpha-2a (human) (UniProt P01563); assay: AUC; sedimentation velocity, 50000 rpm, histidine pH 5, 0 or 140 mM NaCl, 0.8, 0.4 and 0.2 mg/mL (A280 = 1, 0.5, 0.25); monomer with a dimer in fast equilibrium with higher oligomers

stoichiometry N [1]: 2
stoichiometry N [2]: > 2 >=
Substance: Interferon alpha-2a (from UniProt P01563 24-188) (natural protein)
